For assay [1], the target named is T1, human IgG4 purified from human serum (human).
T1 construct: also called IgG4 antigen; human IgG4-sensitized latex
In words: SPR (Biacore), IgG4 immobilized on chip by amino coupling, antibody as analyte. The protocol:
MaI4-08 and MaI4-09-produced antibodies, and, as a control, MaI4-05-produced antibody and 1 mg/mL of HP6025 were adjusted to 1 mg/mL. In addition, 1 mg/mL of IgG4 was prepared from the one purified from human serum. According to the protocol of Sumika Chemical Analysis Service, Ltd., IgG4 was immobilized onto a chip by an amino coupling method, and a sensorgram was obtained by a Biacore model. The obtained binding rate constant (kₐ), dissociation rate constant (kd), and dissociation constant (KD) were as shown in Table 11.

A further assay deals with T2, H-39.
T2 construct: not shown: N-terminal GST tag and the vector-coded linker of pGEX-6P-1
T2 chain: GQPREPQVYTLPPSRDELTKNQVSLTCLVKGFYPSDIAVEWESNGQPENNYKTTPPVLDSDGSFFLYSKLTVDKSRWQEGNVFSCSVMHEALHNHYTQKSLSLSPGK
In words: Western blot: E. coli lysate with the GST-tagged peptide, SDS-PAGE, PVDF membrane, POD-labelled antibody diluted 1000-fold, ECL. In general terms: A western blot detects proteins with antibodies after separation by electrophoresis.

Assay [2] concerns the target T3, GST-tagged peptide H1 (full-length human IgG4 heavy chain constant region) (human, UniProt P01861 1-325 = IgG part).
T3 construct: Expressed in E. coli BL21; lysate, reduced and heat-denatured, on SDS-PAGE / Western blot; not shown: GST tag (glutathione S-transferase) linked to the N terminal, expressed from vector pGEX-6P-1
Described as above.

Assay [3] has as its target T4, GST-tagged peptide H8 (positions 111 to 327 of the human IgG4 heavy chain constant region) (human, UniProt P01861 111-325 = IgG part).
T4 construct: E. coli lysate on Western blot; not shown: GST tag (glutathione S-transferase) linked to the N terminal, expressed from vector pGEX-6P-1
Described as above.

Assay [4] concerns the target T5, GST-tagged peptide H32 (H10 with lysine for arginine at position 289) (human, UniProt P01861 221-325 = IgG part).
T5 construct: not shown: GST tag (glutathione S-transferase) linked to the N terminal, expressed from vector pGEX-6P-1
T5 chain: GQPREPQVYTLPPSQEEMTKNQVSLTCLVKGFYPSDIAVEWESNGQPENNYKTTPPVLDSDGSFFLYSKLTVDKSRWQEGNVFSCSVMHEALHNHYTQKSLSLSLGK
The assay is described as above.

In assay [5] the target is T6, GST-tagged peptide H35 (H10 with Q235R, R289K, E299Q and L325P) (human, UniProt P0DOX5 343-449 = IgG part).
T6 construct: not shown: N-terminal GST tag (from vector pGEX-6P-1) and any vector linker
T6 chain: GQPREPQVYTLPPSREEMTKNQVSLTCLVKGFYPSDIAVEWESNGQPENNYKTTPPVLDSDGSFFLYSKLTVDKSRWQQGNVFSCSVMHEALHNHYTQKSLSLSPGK
The description is as above.

The target of assay [6] is T7, GST-tagged peptide H38 (H10 with R289K, E299Q and L325P) (human, UniProt P0DOX5 343-449 = IgG part).
T7 construct: not shown: N-terminal GST tag (from vector pGEX-6P-1) and any vector linker
T7 chain: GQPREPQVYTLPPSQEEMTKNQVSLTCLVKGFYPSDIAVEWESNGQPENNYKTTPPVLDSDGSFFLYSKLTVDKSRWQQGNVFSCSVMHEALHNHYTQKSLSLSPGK
Described as above.

From patent US20210140973A1 (NITTO BOSEKI, published 2021) come the findings set out here.

T1 sequence (constant, as listed by the source limits assumed): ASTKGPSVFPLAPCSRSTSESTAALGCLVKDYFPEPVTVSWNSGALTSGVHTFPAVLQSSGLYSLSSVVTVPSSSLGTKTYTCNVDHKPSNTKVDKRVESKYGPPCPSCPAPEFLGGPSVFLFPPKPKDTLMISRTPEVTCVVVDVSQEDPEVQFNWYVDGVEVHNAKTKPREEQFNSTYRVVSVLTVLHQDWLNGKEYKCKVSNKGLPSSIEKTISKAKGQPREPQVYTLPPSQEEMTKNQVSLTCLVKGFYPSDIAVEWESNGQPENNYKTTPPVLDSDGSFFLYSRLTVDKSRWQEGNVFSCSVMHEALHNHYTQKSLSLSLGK
T4 sequence (P01861 other isoform, or with tags, fused parts or gaps): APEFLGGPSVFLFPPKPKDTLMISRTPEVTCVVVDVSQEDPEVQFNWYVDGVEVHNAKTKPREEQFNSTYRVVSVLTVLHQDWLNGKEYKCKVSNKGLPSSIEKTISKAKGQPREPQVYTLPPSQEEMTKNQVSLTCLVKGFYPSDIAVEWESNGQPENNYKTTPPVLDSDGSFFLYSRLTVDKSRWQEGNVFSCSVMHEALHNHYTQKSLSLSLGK

B1: MaI4-08-produced antibody (antibody, IgG1, V domains shown)
VH: EVQLQQSGPELVKPGTSVKMSCKASGYIFTSYILHWVKQKPGQGLEWIAYINPYNDGTKYKEKFKGKGTLTSDKSSSTAYMELSSLTSEDSAVYYCARSGGGYGNYAWFAYWGPGTLVTVST
VL: DIQMTQSPSSLSASLGERVSLTCRASQDIGSSLNWLQQEPDGTIKRLIYATSSLDSGVPKRFSGSRSGSDYSLTISSLESEDFVDYYCLQYASYPPTFGAGTKLELK
notes: Purified on protein G from hybridoma culture supernatant; POD-labelled for the Western blots
As for B1, the Kd – broadly, the equilibrium constant for the complex coming apart – in assay [1] is 0.406 nM. In addition, in assay [1], the koff (usually a measure of how fast the partners let go of each other) amounted to 0.000223 s⁻¹. The kon (in general, the rate constant with which the complex forms) in assay [1] turned out to be 549000 M⁻¹ s⁻¹. The binding result with H-39 is “binds”; in assay [2], “binds”; in assay [3] it was “binds”; in assay [4], “binds”; in assay [5], “no binding”; in assay [6], “no binding”.
